# In the nanobody polyreactivity screen of Harvey et al. (2022):
# Assay: yeast display, Sf9 membrane polyspecificity reagent, FACS + sequencing; frameworks hold sequencing errors
# How it was run: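 A nanobody's polyreactivity label depends on the gate it was sorted from. Yeast display cells were stained with 10% biotinylated, detergent-solubilized Sf9 membrane reagent for 1 hour at 4 °C, enriched on streptavidin microbeads and sorted by FACS. The low and high (top ~1%) gates were set on anti-HA fluorescence for expression and streptavidin fluorescence for reagent binding.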
row,Sequence,polyreactivity (PSR sort gate)
1,QVQLVESGGGLVQAGGSLRLSCAASGSTFVPYAMGWYRQAPGKERELVASITYSGGSTSYADSVKGRVTISRDTAKNTVYLQMNSLKPEDTAVNYCAAVPWVVYSGYDYWGQGTQVTVSS,low polyreactivity
2,QVQLVESGGGLVQAGGSLRLSCAASGSTIKPYTMGWYRPAPGKERELVAAITSGGRTYYADSVKGRFTISRDNAKNTVYLQMNSLKPEDTAVYYCNARRYLWLRRYDYWGQGTQVTVSS,high polyreactivity
3,QVQLVESGGGLDQAGGSLRLSCAASGSTFVVNAMGWYRQAPGKERELVAAIRNSGSTTYADSVKGRFTISRDNAKYTVYLQMNSLKPEDTAVYYCATDFSATVTAVQINPYDYWGQGTQVTVSS,low polyreactivity
4,QVQLVESGGGLVQAGGSLRLSCAASGSTFWWYAMGWYRQAPGKEREFVAAINWRGSSTYYADSVKGRFTISRDNAKNTVYLQMNSLKPEDTSVYYCNAVLRYGYAGMDYWGQGTQVTVSS,high polyreactivity
5,QVQLVESGGGLVQAGGSLRISCAASGSTFGSYTMGWYRQAPGKERELVAAIRGGGSTYYADSVKGRFTISRDNAKNTVYLQMNSLKPEDTAVYYCAALSPRRYNPRYGFDYCGQGTQVTVSS,high polyreactivity
6,EVQLEESGGGLVQAGGSLRLSCPASGLIFGLYAMGWYRQAPGKERELVAAISYRTDSTYADSVKGRFTISRDNAKNTFYLQKNSLIPEDTAVYYCAADLRVSVGYYYWGQGTQVTVSS,low polyreactivity
7,QVQLVESGGGLVQAGGSLRLSCAASGITLWQYAMGWYRQAPGKERELVAGITDTGDSTYYADSVKGRVTISRDNAKNTVYLQMNSLKPEDTAVYYCAVPRSALLRAPYELYSWGQGTQVTVSS,low polyreactivity
8,QVQLVESGGGLVQAGGSLRLSCAASGFTFYRNAMGWYRQPPGKERELVAAIDFSGSSTYYADSVKGRFTISRDNAKNTVYLQMNSLKPEDTAVYDCAAELGYAGYWYDYWGQGTQVTVSS,high polyreactivity
9,QVQLVESGGGLVQAGGSLRLSCAASGSIFKYNAMGWYRQAPGKERELVATITSSGSTTYYADSVKGRFTISRDNAKYTVYLQMNSLKPEDTAVYYCNARYSYRRDYWGQGTEVTVSS,high polyreactivity
10,QVQLVESGGGLVQAGGSLRLSCAASGSNFTGYGMGWYRQAPGKETELVAAITWSGGSTYYADSVKGRFTISRDNAKNTVYLQMNSLKPEDTAVYYCATPGIYYEMDYWGQGTQVTVSS,low polyreactivity
11,QVQLVESGGGLVQAGGSLRLSCAASGSIFLLYAMGWYRQAPGKERELVAAISLSTGNTYYADSVKGRFTISRDNAKNTVYLQMNSLKPEDTAVYYCAAEDYWSAYYWGQGTQVTVSS,high polyreactivity
12,QVQLEESGGGLVQAGGSLRLSCAPSGRIYNRNAMGWYRQAPGKERELVASISSGGRTNYADSVKGRFTISRDNAKTTVYLQMNSLKPEDTAVFYCAGNSPRFLLDYWGQGTQVTVSS,low polyreactivity
13,QVQLVESGGGLVQAGGSLRLSCAASGRIFYSYTMGWYRQAPGKERELVAGINRSVGSTYYADSVKGRFTISRDNAKNTVYLQMNSLKPEDTAVYYCAAGSRRRSYYTFSSVHGHYYWGQGTQVTVSS,high polyreactivity
14,QVQLVESGGGLVQAGGSLRLSCGASGSTFAYYTMGWYRQAPAKERELVAAITSGGRTSYAESVKGRFTISRDNAKNTVYLQMNSLKPEDTAVYYCAKGRKPGYYYWGQGTQVTVSS,high polyreactivity
15,QVQLVESGGGLVQAGGSLRLSCAASGSISYRYDKGWYRQAPGKEMELVATIRSGGSTNYADSVKGRFTISRDTAKNTVYLQMNSLKPEDTAVYYGAARLYARKKLHFSADSDYWGQGTQVTVSS,low polyreactivity
16,QVQLVESGGGLVQAGGSLRLSCAASGRIYDYYTMGWYRQAPGKERELVAAITWIGGSTYYADSVKGRFTISRDNAKNTVYLQMNSLKPEDTAVYYWNAEGTALPYRADTVGGYYYWGQGTQVTVSS,low polyreactivity
17,QVQHVESGRGLVQAGGSLRLSCAAYGRIPYKAMGWYKQAPGKERELVAAISRSGTRTYYADSVKGRYTISRDNAKNTVYLQMISLKPQDTAVYYCAAPVSGYSSDYWGQGTQVTVSS,high polyreactivity
18,QVQLVESGGGLVQAGGSLRLRCAASGSIFNFYAMGGYRQAPGKERELVATINWSGGRTYYADSVKGRFTISRDNATNTVYLQMNSLNTEDTAVYYCAASRYFRGDYWGQGTQGTVSS,high polyreactivity
19,QVQLVESGGGLVQAGGSLRLSCDASGSTFRGNAMGWYRQAPGKEREFVASISRRGGRTNYADSVKGRFTISRDNAKNTVYLQMNSVKPEDTAVYYCAATTVPLGDYWGLGTQVTVSS,high polyreactivity
20,QVQLVESGGGLVQAGGSLRLSCAASGSIFYANAMGWYRQAPGKERELVAAISWSGGRTYYADSVKGRFTISRDNAKNTVYLQMNSLKPEDTAVYYCNVLPLYLEYDYWGQGTQVTVSS,high polyreactivity

row,Sequence,polyreactivity (PSR sort gate)
1,QVKLVESGRGLVQAGGSLRVSCAASGRIFQRYVMGWYRQAPGKERELVAAITWSGGSTYADSVKGRFTISRDNAKNTVYLQMNSLKTEDTAVYYCAARVPYNYWGMYYLYDYWGQGTQVTVSS,high polyreactivity
2,QVQLVESGGCLVQAGGSLRLSCAASGSIFHPYGMGWYRQAPGKERELVAAITSSGGDTYYADSVKGRFTISRDNAKNTVYLQMNSLKPEDTAVYYCAATGLPGYYAYDYWGQGTQVTVSS,low polyreactivity
3,QVQLVESGGGLVQAGGSLRLSCAASGRTSLLYAMGWYRQAPGKERELVATISIGGSTYYADSVKGRFTISRDNAKKTVYLQMKSRKPEDTAVYYCAADVWWFFQPSTLGDFEYWGQGTQVTVSS,low polyreactivity
4,QVHLAESGGGLVQAGGSLRLSCASSGIIFYFYAMGWYRQAPGKERELVAAISGTGGRTYYADSVKGRFTISRDNAKNTVYLQMNSLKPEDTAVYYCNADDTPVPSIRFDYWGQGTQVTVSS,low polyreactivity
5,QVQLVESGGGLVQAGGSLRLSCAASGSIIGGYVMGWYRQAPGKERELVAAITSRVGSTYYADSVKGRFTISRDNAKNTVYLQMNSLKPEDTAVYYCAVVFAKRAWSRYDYWGQGTQVTVSS,high polyreactivity
6,QVQLVESGGGLVQAGGSLRLSCAASGSTFVYYAMGWYRKAPGKERELVAAITSSGGSTHYADSVKGRFTISRDNAKNTVYLQMNSLKPEDTAVYYCAVGALGVYGHYGYWGQGTQVTVSS,low polyreactivity
7,QVQLVESGGGLVLAGGSLRLSCAASGRIFGTNAMGWYRQAPGKERELVAAISLSGGRTYADSVKGRFTISRDNAKNTVYLQMNSLKPEDTAVYYCNADSAGITRSRSELDYWGQGTQVTVSS,low polyreactivity
8,QVQLVESGGGLVQAGGSLRLSCAASGSTFGYYTMGWYRQEPGKERELVAAITWSGGSTYFEDSVKGRFTISRDNAKNTVYLQMNSLKPEDTAVYYCAADYYWTPFGYWGQGTLVTVSS,low polyreactivity
9,QVQLVESGGGLVQAGGSLRLSCAASGRISHRNAMGWYRQAPGKERELVAAITSGGSTNYADSVKGRFTISRDNAKNTVYLQMNSLKPEDTAVYYCTTTTYHWYYYRWEIFDYWGQGTQVTVSS,low polyreactivity
10,QVQLVESGGGLVQAGGSLRLSCAASGRTFHAYAMGWSRQAPGKGRELVAAITRTGTTHYADSVKGRFTISRDNAKNTVYLQMNSLKPEDTAVYYCAAQHVRVDAQFVLQGYDYWGQGTQVTVSS,low polyreactivity
11,QVHLVESGGGLVQAGRSLRLSCAASGIIFQLYAMGWYRQPPGKERELVATISSVGSTNYADSVKGRFTISRDNAKNTVYLEMTSLNPEDTAVYYCNAARYGWGYFYGLNYWGQGTQVTVSS,low polyreactivity
12,QVQLVESGGGLVQAGGSLRLSCAASGFTFSFNAMGWYRQAPGKERELVAAITTADSTYYADSVKGRFTISRDNAKNTVYLQMNSLKPEDTAVYYCAADSYYYGYQGQTQYGWVWYDYWGQGTQVTVSS,low polyreactivity
13,QVQLVESGGGLVQAGGRLRLSCAASGRTIGVYAMGWYRQAPGKERELVAAISWSGGTTYYADSVKGRFTISRDNAKNTVYLQMNSLKPEDTGVYYCAADGEYPHSEDFEYWGQGTQVTVSS,low polyreactivity
14,QVQLVESGGGLVQSGGSLRLSCAASGSTIFRYAMGWSRQAPGKERELVAAISWSGASTYYADSVKGRFTISRDNAKNPVYLHMNSQKPEDTAVYYCAARSRWYDAAGYPKYYYWGHGTQVTVSS,high polyreactivity
15,QVQLVESGGGLVQAGGSLRLSCAASGFTFRRYAMGWYRQAPGKEREFVAAITTRGSNTYYADSVKGRFTISRDNAKNTVYLQMNSLKPEDTAVYYCAASYYPPGHYDYWGQGTQVTVSS,high polyreactivity
16,EEELVESAVRLVQAGVSLRLSCAASAIIYAYNAMGWYRQAPGKESELVAAISSGDDTNYADSVKGRFTISRDNAKNTVYLQLNSLKPEDTAVYYCAAEVWTAFTHGSYWTVVDYDYWGQGTQVTVST,low polyreactivity
17,QVQLVESGGGLVQAGGSLRLSCAASGRTFHRYVMGWYRQAPGKERELVAAITSGGRTTYADSVKGRFTISRDNAKNTVYLQMNSLKPEDTAVYYCAAELTVRGTWVQQRTFRYDYWGQGTQVTVSS,low polyreactivity
18,QVQLVESGGGLVQAGGSLRLSCAASGIIFKYYAMGWYRQAPGKEREFVATISRRGGSTYYAYSVKGRFTISRDNAKNTVYLQMNSLKPEDTAVYYCATEYSPGREYKFNFWGQGTQVTVSS,high polyreactivity
19,QVQLVESGGGLVQAGGSLRLICAASGNIFTQYGMGWYRQAPGKERELVAAISRRGGSTYYADSVKGRFTISRDNAKNTVYLQMNSLKPEDTAVYYCARRTNRPPWGFEYWGQGTQVTVSS,high polyreactivity
20,QVQLVESGGGLVQAGGSLRLSCAASGRIITLYAMGWYRQAPGKERELVAGISRSGGSTYYADSVKGRFTISRDNAKNTVYLQMNSLKPEDTAVSYCNAVPIYYAWRRNKPFDYWGQGTQVTVSS,low polyreactivity
